Residue numbers refer to the chain shown, from its start.
Legend:
[1] = target: T1, Recombinant Rat Interleukin-11(IL-11), hFc Tag (CusaBio, CSB-MP859561RAd9) (rat, UniProt Q99MF5 22-199); assay: BLI (Octet RH96), biotinylated sample on SA sensor, rat IL-11 as analyte, 1:1 global fit
T1 construct: Bought fusion protein; also called Rat IL-11; not shown: hFc tag
T1 sequence (looked up): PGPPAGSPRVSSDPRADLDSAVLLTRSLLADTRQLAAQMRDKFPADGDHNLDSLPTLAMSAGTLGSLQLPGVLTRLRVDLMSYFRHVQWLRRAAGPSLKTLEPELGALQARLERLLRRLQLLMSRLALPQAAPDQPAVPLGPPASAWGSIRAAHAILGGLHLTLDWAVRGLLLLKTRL

[2] = target: T2, Trypsin inhibitor type 1-S from Glycine max (Glycine max, UniProt P01070 25-205); assay: SPR (Biacore 8K), trypsin inhibitor amine-coupled on CM5, antibody as analyte
T2 sequence (looked up): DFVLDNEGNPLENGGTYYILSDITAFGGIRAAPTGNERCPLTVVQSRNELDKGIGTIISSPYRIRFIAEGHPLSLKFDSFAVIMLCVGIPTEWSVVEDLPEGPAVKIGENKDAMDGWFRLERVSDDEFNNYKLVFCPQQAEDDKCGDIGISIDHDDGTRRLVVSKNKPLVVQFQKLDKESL

[3] = target: T3, Cynomolgus IL-11, No Tag (Sino Biological Inc., 90925-CNCE) (cynomolgus, UniProt P20808 22-199); assay: SPR (Biacore 8K), cynomolgus IL-11 amine-coupled on CM5, single-cycle kinetics, 1:1 model
T3 construct: Bought protein; also called monkey IL-11
T3 sequence (looked up): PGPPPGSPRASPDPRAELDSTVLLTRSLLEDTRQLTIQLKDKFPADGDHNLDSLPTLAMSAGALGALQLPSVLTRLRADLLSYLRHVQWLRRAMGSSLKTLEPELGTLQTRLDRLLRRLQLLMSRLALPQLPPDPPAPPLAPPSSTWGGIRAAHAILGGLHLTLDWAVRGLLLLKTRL

[4] = target: T4, Human IL-11, No Tag (Sino Biological, 12225-HNCE) (human, UniProt P20809 22-199); assay: SPR (Biacore T200), antibody captured on Protein A chip, IL-11 as analyte, 1:1 model
T4 construct: Bought protein; also called IL-11 Protein, Human, Recombinant
T4 sequence (looked up): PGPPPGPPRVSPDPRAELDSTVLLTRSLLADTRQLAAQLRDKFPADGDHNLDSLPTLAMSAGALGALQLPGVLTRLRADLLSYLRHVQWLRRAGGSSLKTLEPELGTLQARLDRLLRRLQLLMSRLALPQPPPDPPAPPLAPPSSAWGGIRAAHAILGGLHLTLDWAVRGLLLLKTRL

[5] = target: T5, Mouse IL-11, No Tag (Sino Biological, 50117-MNCE) (mouse, UniProt P47873 22-199); assay: as above
T5 construct: Bought protein
T5 sequence (looked up): T1 sequence (looked up) with N50S, F84L, A94G, A137V, V138I

B1: anti-IL-11 monoclonal heavy chain antibody 700068 (antibody, V domains shown)
VH: QVQLVESGGGLVQPGGSLRLSCAASGSIASIYTMAWYRQAPGKQRELVALSTNRGATDYADFVKGRFTISRDNAENTMYLQMNSLKPEDTAVYYCNGVASSWSTGFVASWGQGTQVTVSS
notes: also called 700068 heavy chain antibody
Kd [1]: 1.17 nM | koff [1]: 5.57e-05 s⁻¹ | kon [1]: 47500 M⁻¹ s⁻¹ | binding result [2]: no binding | Kd [3]: 4.56 nM | koff [3]: 0.00221 s⁻¹ | kon [3]: 485000 M⁻¹ s⁻¹ | Kd [4]: 1.93 nM | koff [4]: 0.00133 s⁻¹ | kon [4]: 689000 M⁻¹ s⁻¹ | Kd [5]: 2.2 nM | koff [5]: 0.00107 s⁻¹ | kon [5]: 487000 M⁻¹ s⁻¹

Reference: patent publication EP4814010A1 (Shanghai Huaota Biopharmaceutical Co., Ltd., dated 2026)
